From paper PMC11445581 come the findings set out here.

The target in experiment [1] is Anaphase Promoting Complex/Cyclosome (APC/C), endogenous, with APC8-mScarlet (human (endogenous in RPE-1)) (UniProt Q9UJX2). The experiment can be described thus: fluorescence cross-correlation spectroscopy (FCCS); in living RPE-1 Cyclin B1-mEmerald+/+; APC8-mScarlet+/+ cells (metaphase by p-0009), measured in the cytoplasm; apparent.
Experiment [2] shares this target. The experiment can be described thus: fluorescence cross-correlation spectroscopy (FCCS); in living RPE-1 Cyclin B1-mEmerald+/+; APC8-mScarlet+/+ cells (metaphase by p-0009), measured at the chromosomes; apparent.
Experiment [3] has the same target. As to the kind of experiment: fluorescence cross-correlation spectroscopy (FCCS); in living RPE-1 Cyclin B1-mEmerald+/+; APC8-mScarlet+/+ cells (metaphase by p-0009), measured at the spindle poles; apparent.
Experiment [4] shares this target. The experiment can be described thus: fluorescence cross-correlation spectroscopy (FCCS); in living RPE-1 Cyclin B1-mEmerald+/+; APC8-mScarlet+/+ cells (metaphase by p-0009), measured at the spindle fibres; apparent.
The target of experiment [5] is Anaphase Promoting Complex/Cyclosome (APC/C) with APC8-mScarlet, endogenous (human (endogenous in RPE-1)) (UniProt Q9UJX2). As to the kind of experiment: fluorescence cross-correlation spectroscopy (FCCS); living RPE-1 Cyclin B1-mEmerald+/+; APC8-mScarlet+/+ cells in metaphase (untreated; similar with MG132), measured in the cytoplasm; in vivo KD.
For experiment [6] the target is unchanged. As to the kind of experiment: fluorescence cross-correlation spectroscopy (FCCS); living RPE-1 Cyclin B1-mEmerald+/+; APC8-mScarlet+/+ cells in metaphase (untreated; similar with MG132), measured at the chromatin (chromosomes); in vivo KD.
Experiment [7] concerns the target Nucleosome Core Particle NCP147, P04908;P68431;P62805. The experiment can be described thus: EMSA. The conditions noted are these: 2 µM Cyclin B1; parent: est. 18; read off a plot. (In general: Mobility shift assays separate free from complexed probe on a gel.)

For “Cyclin B1-mEmerald (endogenous) (from UniProt P14635 1-433) (natural protein)”, the Kd in experiment [1] stood at 0.176 µM; in experiment [2] it was 0.083 µM; in experiment [3], 0.081 µM; in experiment [4], 0.071 µM.
Turning to “Cyclin B1-mEmerald (endogenous, both alleles tagged) (from UniProt P14635 1-433) (natural protein)”, the Kd in experiment [5] came out at 0.18 µM; in experiment [6] it was 0.08 µM.
With “Cyclin B1^WT-StrepII, full length (from UniProt P14635) L3A; R4A; V5A; T6A; R7A”, in experiment [7], the other: Unbound NCP147 (%) amounted to 85%.
On to “Cyclin B1^WT-StrepII, full length (from UniProt P14635) R4E; R7E”, for which the other: Unbound NCP147 (%) in experiment [7] is 54%.
